# Experimental data reported in the DeepSol protein solubility set.
# Test: soluble on expression in E. coli; label from the status in PepcDB or PDB records
row,Sequence,soluble on expression in E. coli
1,MNKAAQKVLKLLGHTEIARVNSSCGAEQEYFLVDSNFAHQRPDLLLAGRTLFGKSPAKGQEFDDHYFGAIPERVQIFMQDVEAQLYKLGIPAKTRHNEVAPGQFEIAPVFEAANVASDHQQLIMTTLKTTAKKHGFMCLLHEKPFAGINGSGKHVNWSVGNATQGNLLDPGDSPHDNAQFLVFCGAVIRGVHKFGPLMRAVIANASNDHRLGANEAPPAIMSVYLGSQLEEVFEQIKNGTVSESKKKGVMDLGVAVLPELTKDAGDRNRTSPFAFTGNRFEFRAVGSSQSVSGPLVALNTILADSLGWIGDRLESELAKGLEISEAILTVLKEIMNDHGSVIFGGNGYSEEWHREAVQERGLRNLPTTADALPVLKEDEVVALFDQLKVLTPIELESRFEVYAEQYIKSIEV,not soluble
2,MDTMRQRILVVDDDASLAEMLTIVLRGEGFDTAVIGDGTQALTAVRELRPDLVLLDLMLPGMNGIDVCRVLRADSGVPIVMLTAKTDTVDVVLGLESGADDYIMKPFKPKELVARVRARLRRNDDEPAEMLSIADVEIDVPAHKVTRNGEQISLTPLEFDLLVALARKPRQVFTRDVLLEQVWGYRHPADTRLVNVHVQRLRAKVEKDPENPTVVLTVRGVGYKAGPPTSGSHHHHHH,soluble
3,TLAVAAGTGAYLIDKRQKQKAKEPALPAKAEDGSEPISQRELSWDDVQPVDIIGLEVGYRLIPLVDRDQGGELLERVKGVRKKLSQDFGFLIPAVHIRDNLELTPNSYRITLMGVAVGEAEIRPDQELAINPGQVYGMIDGEPTMDPAFGLEAVWIREEQREHAQALGYTVVDSSTVLATHLSQLLTNNASQLIGHEEVQNLLEMLGRSAPKLVENFVPDQLQLGVVVKVLQNLLNEAIPIRDIRTIVQTLAEYSSKSQEPDILTAAVRISLKRLIVQEINGIEPELPVITLIPELEQILHQTMQASGGESAGIEPGLAERLQSSLSHATQEQELKGEPAVLLTSGVLRSTLAKFVKNTIPNLRVLSYQEIPDEKQIRIVQAVGN,not soluble
4,MSSKLKISLSCGDYDRTRALFDGRAPIEGCEVTAVPLEPEEAFHRAFRYHEYDVTEISMSSHMMTTARGDNEYIAIPAFLSRVFRHSGIYVRTDRDIDKPQDLRGKTIGVPEYQITANVWIRGILEDAYGVKPQDIKWRRGGIEEPGRGERAPIELPDGIDLQQIPDDKTLSDMLEAGEIDGYIGARAPSCFLRGAPNVGRLFNDYLKTEQDYFRETRIFPIMHMVGIRRSLVEQNPWLPVSVYKAFLKAKMLAVKELNEICHLAVTLPWMVHHYNAARELMGDDYWPYGLDANRHVIETFARYHYGQGLSRRLVKPEELFAASSLDLSKIMAGDPNSLEHHHHHH,not soluble
5,MGSSHHHHHHSSGRENLYFQGMHYQPKQDLLNDRIILVTGASDGIGREAAMTYARYGATVILLGRNEEKLRQVASHINEETGRQPQWFILDLLTCTSENCQQLAQRIVVNYPRLDGVLHNAGLLGDVCPMSEQNPQVWQDVMQINVNATFMLTQALLPLLLKSDAGSLVFTSSSVGRQGRANWGAYAASKFATEGMMQVLADEYQQRLRVNCINPGGTRTAMRASAFPTEDPQKLKTPADIMPLYLWLMGDDSRRKTGMTFDAQPGRKPGISQ,soluble
6,MRTSDSHLPLSNLARSDSIEFKDAVINEKWVHSANRRKGHLTPKAPEKKSGWFGGQKSEEELLMERVEQHELEELQTFIAQKLFRVDGIICDEETRILLVEKLMNAKEYPTINHDELAHRYGSSMAGWLRDRLVPSMSDCSSVLQRAAAEFYQNKMSDPLCNWGQLNPEHVSMVAARIAKFSEEMSSKVKWSLLVEPGKFSCHLTEFVQEFNRLDRMFVSNELSDEESLQTAFNANYLTKARSKMVPCAEFSRVKLNDGLGRLDDRNELRNGMFSDEHEFLQEEGYTAKSTYGTTDFIHANYVKGGPLLNTFICAQAPLKNTQEDFWRMVFQEKCQFIVMLNSAVDSSTLGPLDSANRNHCPYYWPRAENESLRFGSFHITCMKVDSKADPLFTITKLKVQKVGGNLLDAEFDEELFLEHWQWDWQYLGDVHWPFRVLRKARQLSTPTIVQCIDGCSKSGTLVSIETALMHFIRGSPITKSLILQSCVFVRLQRRLSVSSVLLYLFIYRVILRWIEPYVNKWYHRAALGLRFKSIGFIQKYNAMIQEFSRITPAY,not soluble
7,MRLITFAGHYFSRIIIMINRALVRSRVLQQAYVYYHRDDADIQSAEKELLNSLEQTYDLYLYYLLLVPELTRLHAEALEANKNKHLATEKDKNPNLRMVRNRLAEKIESCRPLWVRAEQNALNWRSEEAFLRRLLKKIHLSETFTRYMRSDATDDFEADRLFWNELMRDIILPDEELAEVMEEQSIFWDNQIQLIEKIETEEAPDIEEVEQSVRQAVADGNYQTIRQENAPIEIVKEFVLKTIRRIEQDTDPSAILLPAYKEKDDAVFGTTLLRNAIINGQEYRH,not soluble
8,MAHHHHHHMGDNIEKRYSLALYNVGKKNKKINEITSDILFIKNNFLKDKSFLNFLHTPNIESREKLNFLKTECKKYNNNFSPITSNFLESLFDSKRIKFLQKIIEEFELLLMKERKEIKCVVYTAKEINNNEKQKIQESILFKLKNELKPLIEYKIDKSILGGLVLQIGNQVFDFSAKYKIEKIRSTLS,not soluble
9,MGSSHHHHHHSSGLEVLFQGPLHMGIKYQKIGDVVIVKKELSEDEIREIVKRTKCKAILLYTTQITGEFRTPHVKILYGKETETIHKEYGCLFKLDVAKIMWSQGNIEERKRMAFISNENEVVVDMFAGIGYFTIPLAKYSKPKLVYAIEKNPTAYHYLCENIKLNKLNNVIPILADNRDVELKDVADRVIMGYVHKTHKFLDKTFEFLKDRGVIHYHETVAEKIMYERPIERLKFYAEKNGYKLIDYEVRKIKKYAPGVWHVVVDAKFERI,soluble
10,MIPVILSGGSGSRLWPLSRKQYPKQFLALTGDDTLFQQTIKRLAFDGMQAPLLVCNKEHRFIVQEQLEAQNLASQAILLEPFGRNTAPAVAIAAMKLVAEGRDELLLILPADHVIEDQRAFQQALALATNAAEKGEMVLFGIPASRPETGYGYIRASADAQLPEGVSRVQSFVEKPDEARAREFVAAGGYYWNSGMFLFRASRYLEELKKHDADIYDTCLLALERSQHDGDLVNIDAATFECCPDNSIDYAVMEKTSRACVVPLSAGWNDVGSWSSIWDVHAKDANGNVTKGDVLVHDSHNCLVHGNGKLVSVIGLEDIVVVETKDAMMIAHKDRVQDVKHVVKDLDAQGRSETQNHCEVYRPWGSYDSVDMGGRFQVKHITVKPGARLSLQMHHHRAEHWIVVSGTAQVTCDDKTFLLTENQSTYIPIASVHRLANPGKIPLEIIEVQSGSYLGEDDIERLEDVYGRTAEPALQVVAGSR,not soluble
11,MSLKRIVVANDLVGVGKVALSASIPLMASCLLEQVLLPTCLLSSHTGGGQNPVKHTTSSILDVFLTDWDNKRIKFDGIFIGYFTTTRDGQKLLEWLSRKQLPLILDPIMADNGKLYQGFSQKHIEIMIKLTQKAELVLPNISEACLLTQTAYLAKNYDEEDIRQVARKLAKLGPKQVVISGISFEEGSIGFAYYQSDSDQLTFHFGKQFPYHFYGTGDIASAIITAGFYYQLPLTQILDLVVSFLEKVLQNTLTLKRDLILGVAYESHLNYLTEGHHHHHH,not soluble
12,MGSDKIHHHHHHEEGTSPINENTSNLPVSATADAQLKFAKLLSQAASGSIEVRNFLKKEALVQFDNDYDIFYPLIKDKKVFGNQSFRDILLSYCKEENELSQIEQSLPLLNIMVPDLTLFWDFNATTWDTSDKEISVLCRDDKNNTLYENGENIGNMTNGDIPGFPCLVVKNNERMKITSVNTRSGEATYEFISDAFDGSKKVQTRHYDADNDLEATEDLNKYVSKDVVATAINAWREFKNVPNACQRDYIYYGINKTNTPGSLNRNIREKLYRFRISATAFGRIADADGDQRLQDLTQTKRYLSNEEILQNIWTDGNFEFRFKSYIAGETNKDAMEHLLTFSVKAKDVFSIEKIHLHHKNGTAFRQSKNFYSVDINNLRSKWIYPEKLEPNKDNQVFTLPWDLYNKALSIHMYVEEFDVDQTIEKTITVVNEFTNKADFSIEGGGSIDSVKLSAKLGYGFSHTNTTTSSTKVTTTVGSDELGTLSFFFYDPIIRAESNNTYKLYDVSSGDVTATILPINLIITR,not soluble
13,MGSDKIHHHHHHMEESKELFKDIEKHLLNDVRPSEYLNEQLNKGNLNKYPFTMLSDLVHTEQNKEHHPEGNVWNHTLLVVDKAAENREKSSDKRAFMWGSLLHDIGKAKTTKVRKGKITSYNHDKVGETMSREFLQCFSEDEDFIYKVIKLVRWHMQTLFVVKNMSFADSKNMLKETSLDEIALLSLCDRLGRQPMSNGKIQEEKENVRTFVRKVKELNKV,not soluble
14,PVFILGHWRSGTTFVHNVFSCDSHFGYNTTYQTVFPHLMMWGQPFFKKNMSWLMPDKRPTDNMELAVDLPQEEEFALANMMPYTYYNFWFLPRYQQEYADKYLLFDTISEAELKVFEETFTKLIKISLWNTQGTQFLSKNPPHTGRVKELVKMFPNAKFIYLMRNPYTVFESTRSFFTNTIQPLKLQDITPAELENNILSIYAKLYHKYEADKQFIPEGNLMEVKFEDFEADAMGMTENIYHALDIPGFAEARGSIEKYVGGKKGYKKNKYKYDDRTVQLVQDHWDFALKQWDYSL,not soluble
15,MMLITDTGVPERYIDTDEWGGEVMLRLDDGWCAALDRNTMMCTIYEKRPLICREFEAGAEDCLTERKGIATAYLLEHHHHHH,not soluble
16,SNDFNWTSVFNLSHNRNKIVSLNGLLDQTIEGTWFIHKVGLPYHTFYVKEFAGVDPLTGSAQYYLNTKNEDGSYNRELTTDAAKAESIPYKTATPKVSGGFTNILNYKWIDLTFTLTYSLGGYSFDKLGTYIENGSSSIYSSRYNLPAYMMNRWQKPGDQTDIPRFVYGEPATSTNSSRYIHSTDHLRLKNFTLGFTLPNQWTQKLMIDKVRVYFSGNNLLTWAKWKQYDPETPVNGEVFCEAPAMRTFSFGAQLSF,not soluble
17,MRYITAGESHGPQLTTIIEGVPAGLPLVADDINEELARRQKGYGRGRRMQIETDQVQIVSGVRHGETLGSPIALVVENRDFAHWTKIMGAEPLTEQEEKEMKRKVTKPRPGHADLNGAIKYGHRDMRNVLERSSARETTVRVAAGAVAKKVLAELGITVAGHVIEIGGVEAKETTYRSIEELKSITEASPVRCLDEEAGNQMIKAIDDAKSNGDSIGGIVEVIVEGMPIGVGSYVHYDRKLDAKLAAAIMSINAFKGVEIGIGFEAAHRPGSEVHDEILWNEEHGYTRRTNNAGGLEGGMTTGMPIVVRGVMKPIPTLYKPLQSVDIDTKEPFTASIERSDSCAVPAASVVAEAVVAWELATALIEQFGLDRMDLIRENIEKHNEYARGF,not soluble
18,MAIIKCDVCAYPFSNKQDPRCSKCHPKITPPSKPKNPYALPMKQQLILGPIVGIVVGLMFAACEGNRPGRATTACMLRARAQAIAAGNPNYTHAKEVSPTRAMLVFRKDGRTRNTNFFCDSLVTDREA,not soluble
19,MNVWSKLLTALRGGANEAGEALVDSQALRILDQEIRDADQELRKSKEALAEIMARQKLAAERANGSAAKIAEYESYALKALEAGNEALAQEVAQKIANLENDLAVEREQADGFAASVAQLRKAVTQAEGNIKHLKQQVDTVKATESVQKAQQAVAQRYGGSQSKLHTAVESLERIKQKQAERAAKMDAAAELANTSSPDDALDAKLREAGIVAGSTSADSVLARLKDRSKSLEHHHHHH,not soluble
20,MGSDKIHHHHHHMLVLNNLQKKFTNSKMVLNNVNAKFRSGSINCIVGVNGAGKTTLLNIISSILMPTKGDVYLNSESIFENSTLKKEIFYTPVNPFFYENLSAKDNLYLICSLYNRKIDQITIEKTIKDVGLNIEDLNIPVYNFSSGMKQKLNFASMLLVDSNVLLLDEPFNALDHVAQKNFTRILKGLVSKEKIIIFTSHLPNTILELSENIYLLKDGCFTDKRKAQSFNQTTLETWLLESQKEVIPYEEK,not soluble
